Measured values: patent publication US20260117202A1
“And” between values parts separate entries of the source, which are not always exact repeats. Equal values may be shown once.

Legend:
FHCS-4 (RSV strain A2) [1] = target: FHCS-4 (RSV strain A2) (UniProt P03420); test: ELISA; F coated 78.13 ng/ml; stored -80° C.
FHCS-2 (RSV strain A2) [2] = target: FHCS-2 (RSV strain A2) (UniProt P03420); test: ELISA; F coated 78.13 ng/ml; stored -80° C.
FHCS-1 (RSV strain A2) [3] = target: FHCS-1 (RSV strain A2) (UniProt P03420); test: ELISA; F coated 78.13 ng/ml; stored -80° C.
FHCS-4 (RSV strain A2) [4] = target: FHCS-4 (RSV strain A2) (UniProt P03420); test: ELISA; F coated 625 ng/ml; stored -80° C.
FHCS-2 (RSV strain A2) [5] = target: FHCS-2 (RSV strain A2) (UniProt P03420); test: ELISA; F coated 625 ng/ml; stored -80° C.
FHCS-1 (RSV strain A2) [6] = target: FHCS-1 (RSV strain A2) (UniProt P03420); test: ELISA; F coated 625 ng/ml; stored -80° C.
FHCS-4 (RSV strain A2) [7] = target: FHCS-4 (RSV strain A2) (UniProt P03420); test: ELISA; F coated 78.13 ng/ml; stored -80° C.; remark: listed apart in the source
FHCS-2 (RSV strain A2) [8] = target: FHCS-2 (RSV strain A2) (UniProt P03420); test: ELISA; F coated 78.13 ng/ml; stored -80° C.; remark: listed apart in the source
FHCS-4 (RSV strain A2) [9] = target: FHCS-4 (RSV strain A2) (UniProt P03420); test: ELISA; F coated 78.13 ng/ml; stored 37° C. 2 W
FHCS-2 (RSV strain A2) [10] = target: FHCS-2 (RSV strain A2) (UniProt P03420); test: ELISA; F coated 78.13 ng/ml; stored 37° C. 2 W
FHCS-1 (RSV strain A2) [11] = target: FHCS-1 (RSV strain A2) (UniProt P03420); test: ELISA; F coated 78.13 ng/ml; stored 37° C. 2 W
FHCS-4 (RSV strain A2) [12] = target: FHCS-4 (RSV strain A2) (UniProt P03420); test: ELISA; F coated 156.3 ng/ml; stored 37° C. 2 W
FHCS-2 (RSV strain A2) [13] = target: FHCS-2 (RSV strain A2) (UniProt P03420); test: ELISA; F coated 156.3 ng/ml; stored 37° C. 2 W
FHCS-1 (RSV strain A2) [14] = target: FHCS-1 (RSV strain A2) (UniProt P03420); test: ELISA; F coated 156.3 ng/ml; stored 37° C. 2 W
[15] = target: wild-type RSV F protein 2 before artificial mutation (RSV strain A2) (UniProt P03420); test: sandwich ELISA, AM14 coated, F at 2 µg/ml
FHS-5 (RSV strain A2) = FHS-5 (RSV strain A2) (UniProt P03420); test: sandwich ELISA, AM14 coated, supernatant 1:10
FHS-86 (RSV strain A2) = FHS-86 (RSV strain A2) (UniProt P03420); test: sandwich ELISA, AM14 coated, supernatant 1:10
FHS-62 (RSV strain A2) = FHS-62 (RSV strain A2) (UniProt P03420); test: sandwich ELISA, AM14 coated, supernatant 1:10
FHM-9 (RSV strain A2) = FHM-9 (RSV strain A2) (UniProt P03420); test: sandwich ELISA, AM14 coated, supernatant 1:10
FHS-28 (RSV strain A2) = FHS-28 (RSV strain A2) (UniProt P03420); test: sandwich ELISA, AM14 coated, supernatant 1:10
FHS-40 (RSV strain A2) = FHS-40 (RSV strain A2) (UniProt P03420); test: sandwich ELISA, AM14 coated, supernatant 1:10
FHS-4 (RSV strain A2) = FHS-4 (RSV strain A2) (UniProt P03420); test: sandwich ELISA, AM14 coated, supernatant 1:10
FHM-5 (RSV strain A2) = FHM-5 (RSV strain A2) (UniProt P03420); test: sandwich ELISA, AM14 coated, supernatant 1:10
FHS-45 (RSV strain A2) = FHS-45 (RSV strain A2) (UniProt P03420); test: sandwich ELISA, AM14 coated, supernatant 1:10
FHS-73 (RSV strain A2) = FHS-73 (RSV strain A2) (UniProt P03420); test: sandwich ELISA, AM14 coated, supernatant 1:10
FHS-46 (RSV strain A2) = FHS-46 (RSV strain A2) (UniProt P03420); test: sandwich ELISA, AM14 coated, supernatant 1:10
FHS-17 (RSV strain A2) = FHS-17 (RSV strain A2) (UniProt P03420); test: sandwich ELISA, AM14 coated, supernatant 1:10
FHS-85 (RSV strain A2) = FHS-85 (RSV strain A2) (UniProt P03420); test: sandwich ELISA, AM14 coated, supernatant 1:10
FHS-24 (RSV strain A2) = FHS-24 (RSV strain A2) (UniProt P03420); test: sandwich ELISA, AM14 coated, supernatant 1:10
FHCS-4 (RSV strain A2) [16] = target: FHCS-4 (RSV strain A2) (UniProt P03420); test: ELISA; F coated 5000 ng/ml; stored 37° C. 4 W
FHCS-2 (RSV strain A2) [17] = target: FHCS-2 (RSV strain A2) (UniProt P03420); test: ELISA; F coated 5000 ng/ml; stored 37° C. 4 W
FHCS-1 (RSV strain A2) [18] = target: FHCS-1 (RSV strain A2) (UniProt P03420); test: ELISA; F coated 5000 ng/ml; stored 37° C. 4 W
FHCS-4 (RSV strain A2) [19] = target: FHCS-4 (RSV strain A2) (UniProt P03420); test: ELISA; F coated 5000 ng/ml; stored -80° C.
FHCS-2 (RSV strain A2) [20] = target: FHCS-2 (RSV strain A2) (UniProt P03420); test: ELISA; F coated 5000 ng/ml; stored -80° C.
FHCS-1 (RSV strain A2) [21] = target: FHCS-1 (RSV strain A2) (UniProt P03420); test: ELISA; F coated 5000 ng/ml; stored -80° C.
FHCS-4 (RSV strain A2) [22] = target: FHCS-4 (RSV strain A2) (UniProt P03420); test: ELISA; F coated 2500 ng/ml; stored -80° C.
FHCS-2 (RSV strain A2) [23] = target: FHCS-2 (RSV strain A2) (UniProt P03420); test: ELISA; F coated 2500 ng/ml; stored -80° C.
FHCS-1 (RSV strain A2) [24] = target: FHCS-1 (RSV strain A2) (UniProt P03420); test: ELISA; F coated 2500 ng/ml; stored -80° C.

Synagis® (antibody)
OD value (FHCS-4 (RSV strain A2) [1]): 0.009 OD and 0.011 OD
OD value (FHCS-2 (RSV strain A2) [2]): 0.014 OD and 0.015 OD
OD value (FHCS-1 (RSV strain A2) [3]): 0.009 OD and 0.01 OD
OD value (FHCS-4 (RSV strain A2) [4]): 0.11 OD
OD value (FHCS-2 (RSV strain A2) [5]): 0.409 OD and 0.307 OD
OD value (FHCS-1 (RSV strain A2) [6]): 0.161 OD and 0.154 OD
OD value (FHCS-4 (RSV strain A2) [7]): 0.008 OD
OD value (FHCS-2 (RSV strain A2) [8]): 0.016 OD
OD value (FHCS-4 (RSV strain A2) [9]): 0.018 OD and 0.015 OD
OD value (FHCS-2 (RSV strain A2) [10]): 0.018 OD and 0.022 OD
OD value (FHCS-1 (RSV strain A2) [11]): 0.01 OD and 0.015 OD
OD value (FHCS-4 (RSV strain A2) [12]): 0.033 OD and 0.024 OD
OD value (FHCS-2 (RSV strain A2) [13]): 0.037 OD and 0.036 OD
OD value (FHCS-1 (RSV strain A2) [14]): 0.017 OD and 0.018 OD

AM14 monoclonal antibody
OD value [15]: 0.01 OD
OD value (FHS-5 (RSV strain A2)): 2.24 OD
OD value (FHS-86 (RSV strain A2)): 0.062 OD
OD value (FHS-62 (RSV strain A2)): 0.01 OD
OD value (FHM-9 (RSV strain A2)): 2.12 OD
OD value (FHS-28 (RSV strain A2)): 0.008 OD
OD value (FHS-40 (RSV strain A2)): 0.009 OD
OD value (FHS-4 (RSV strain A2)): 2.26 OD
OD value (FHM-5 (RSV strain A2)): 1.96 OD
OD value (FHS-45 (RSV strain A2)): 0.12 OD
OD value (FHS-73 (RSV strain A2)): 0.016 OD
OD value (FHS-46 (RSV strain A2)): 2.41 OD
OD value (FHS-17 (RSV strain A2)): 0.009 OD
OD value (FHS-85 (RSV strain A2)): 0.008 OD
OD value (FHS-24 (RSV strain A2)): 0.01 OD
OD value (FHCS-4 (RSV strain A2) [16]): 0.665 OD and 0.438 OD
OD value (FHCS-2 (RSV strain A2) [17]): 1.95 OD and 1.48 OD
OD value (FHCS-1 (RSV strain A2) [18]): 1.17 OD and 1.33 OD
OD value (FHCS-4 (RSV strain A2) [19]): 0.404 OD and 0.294 OD
OD value (FHCS-2 (RSV strain A2) [20]): 0.203 OD and 0.382 OD
OD value (FHCS-1 (RSV strain A2) [21]): 0.158 OD and 0.167 OD
OD value (FHCS-4 (RSV strain A2) [22]): 0.008 OD and 0.007 OD
OD value (FHCS-2 (RSV strain A2) [23]): 0.051 OD and 0.056 OD
OD value (FHCS-1 (RSV strain A2) [24]): 0.034 OD and 0.039 OD
